According to publication PMC11417369, “DNA sequence and chromatin differentiate sequence-specific transcription factor binding in the human malaria parasite Plasmodium falciparum”:
Positions count from the first letter of the chain named.

B1: CACACA_negctrl_site1674 (dsDNA)
DNA 1: TATTTTAATTATAAATTTAAAAAAAAAAAGAAAAAA
DNA 2: TTTTTTCTTTTTTTTTTTAAATTTATAATTAAAATA
B2: CACACA_negctrl_site1027 (dsDNA)
DNA 1: ATTAAAAAGACAAAAAAAAAATTTTTTTTTTTTTTT
DNA 2: AAAAAAAAAAAAAAATTTTTTTTTTGTCTTTTTAAT
B3: CACACA_negctrl_site1292 (dsDNA)
DNA 1: TATATTTAGAATACAATCTTAAAGTTGAAATAAAAT
DNA 2: ATTTTATTTCAACTTTAAGATTGTATTCTAAATATA
B4: CACACA_site1724 (dsDNA)
DNA 1: TATATACGCAAACACACACACACATACACCCACATA
DNA 2: TATGTGGGTGTATGTGTGTGTGTGTTTGCGTATATA
B5: CACACA_negctrl_site934 (dsDNA)
DNA 1: AATTTTATTTAATTTTTTTGGGAAATGATAAAATTT
DNA 2: AAATTTTATCATTTCCCAAAAAAATTAAATAAAATT
B6: CACACA_site6350 (dsDNA)
DNA 1: CACAAACAGACAAACACACACACACGGACATACATA
DNA 2: TATGTATGTCCGTGTGTGTGTGTTTGTCTGTTTGTG
B7: CACACA_site5576 (dsDNA)
DNA 1: AAAAAAAAAAAACACACACACACACCGACACATACA
DNA 2: TGTATGTGTCGGTGTGTGTGTGTGTTTTTTTTTTTT
B8: CACACA_site7363 (dsDNA)
DNA 1: B7 DNA 1 with A11G, C26G
DNA 2: B7 DNA 2 with G11C, T26C
B9: CACACA_negctrl_site694 (dsDNA)
DNA 1: TAATTTATTACCATGTAATTATTACGAATATAGGAT
DNA 2: ATCCTATATTCGTAATAATTACATGGTAATAAATTA
B10: CACACA_negctrl_site1599 (dsDNA)
DNA 1: TTTTTAAATTATTTGAAAAAAAGAAAATTATAAACA
DNA 2: TGTTTATAATTTTCTTTTTTTCAAATAATTTAAAAA
B11: CACACA_site4689 (dsDNA)
DNA 1: ATAACCTAATAATACACACACATGAATATATATAAT
DNA 2: ATTATATATATTCATGTGTGTGTATTATTAGGTTAT
B12: CACACA_negctrl_site1788 (dsDNA)
DNA 1: TTTTATAAAATATAATATAATAATATATGTATAATA
DNA 2: TATTATACATATATTATTATATTATATTTTATAAAA
B13: CACACA_negctrl_site261 (dsDNA)
DNA 1: AACCTAAGCATTCTTCAAATTATATATGTAAAATGA
DNA 2: TCATTTTACATATATAATTTGAAGAATGCTTAGGTT
B14: CACACA_site2431 (dsDNA)
DNA 1: AACAAACACAGACACACACACACACCCAAATGATTA
DNA 2: TAATCATTTGGGTGTGTGTGTGTGTCTGTGTTTGTT
B15: CACACA_negctrl_site1538 (dsDNA)
DNA 1: TTTTTTTTTAAGATGAAGATCAATATATAAATATAT
DNA 2: ATATATTTATATATTGATCTTCATCTTAAAAAAAAA
B16: CACACA_negctrl_site22 (dsDNA)
DNA 1: TTTTAAGATATAAATTAATACTTATATATATAGATA
DNA 2: TATCTATATATATAAGTATTAATTTATATCTTAAAA
B17: CACACA_negctrl_site1509 (dsDNA)
DNA 1: TTTAAAAAATGTTATATTATATAATTAAAAAAAAAA
DNA 2: TTTTTTTTTTAATTATATAATATAACATTTTTTAAA
B18: CACACA_site8345 (dsDNA)
DNA 1: AATACCCAAGGACACACACACACATATATATATATA
DNA 2: TATATATATATATGTGTGTGTGTGTCCTTGGGTATT
B19: CACACA_negctrl_site1720 (dsDNA)
DNA 1: TTCTCAAAATTAAAATAACAGATTAACGAACTAACG
DNA 2: CGTTAGTTCGTTAATCTGTTATTTTAATTTTGAGAA

The binders below were run against T1, AP2-HC D1 (Plasmodium falciparum, UniProt Q8IKR9 1316-1374) (assay: gcPBM; about 25 ug protein; PBS, 1% milk, 0.2 mg/ml BSA, salmon testes DNA, 0.03% Triton X-100). Conditions: tags: N-terminal GST (pGEX-4T-1), kept; label: surface-attached array probe.
T1 sequence: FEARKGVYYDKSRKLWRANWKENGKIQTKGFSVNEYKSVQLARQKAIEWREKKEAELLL
With B1 the binding signal was 9.42 ln median PBM intensity, better of two orientations.
In the case of B2, the binding signal is reported as 9.26 ln median PBM intensity, better of two orientations.
For B3, the binding signal was 9.26 ln median PBM intensity, better of two orientations.
In the case of B4, the binding signal is reported as 11.9 ln median PBM intensity, better of two orientations.
For B5, the binding signal was 9.22 ln median PBM intensity, better of two orientations.
In the case of B6, the binding signal is reported as 10.6 ln median PBM intensity, better of two orientations.
With B7 the binding signal was 12.5 ln median PBM intensity, better of two orientations.
In the case of B8, the binding signal is reported as 11.9 ln median PBM intensity, better of two orientations.
For B9, the binding signal was 9.4 ln median PBM intensity, better of two orientations.
With B10 the binding signal was 9.26 ln median PBM intensity, better of two orientations.
In the case of B11, the binding signal is reported as 10.4 ln median PBM intensity, better of two orientations.
With B12 the binding signal was 9.41 ln median PBM intensity, better of two orientations.
B13 was tested, and the binding signal was 9.41 ln median PBM intensity, better of two orientations.
B14 was tested, and the binding signal was 11.7 ln median PBM intensity, better of two orientations.
For B15, the binding signal was 8.98 ln median PBM intensity, better of two orientations.
For B16, the binding signal was 9.27 ln median PBM intensity, better of two orientations.
In the case of B17, the binding signal is reported as 9.35 ln median PBM intensity, better of two orientations.
With B18 the binding signal was 11.8 ln median PBM intensity, better of two orientations.
B19 was tested, and the binding signal was 9.4 ln median PBM intensity, better of two orientations.

Each binder was assayed against T2, AP2-LT D1 (Plasmodium falciparum, UniProt Q8IAM1 2520-2577) in the same assay as above. Conditions: tags: N-terminal GST (pGEX-4T-1), kept; label: surface-attached array probe.
T2 sequence: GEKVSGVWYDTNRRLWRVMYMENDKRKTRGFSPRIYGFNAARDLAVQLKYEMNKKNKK
In the case of B1, the binding signal is reported as 8.52 ln median PBM intensity, better of two orientations.
With B2 the binding signal was 8.44 ln median PBM intensity, better of two orientations.
For B3, the binding signal was 8.65 ln median PBM intensity, better of two orientations.
For B4, the binding signal was 10.4 ln median PBM intensity, better of two orientations.
With B5 the binding signal was 8.39 ln median PBM intensity, better of two orientations.
For B6, the binding signal was 10.2 ln median PBM intensity, better of two orientations.
With B7 the binding signal was 10.6 ln median PBM intensity, better of two orientations.
In the case of B8, the binding signal is reported as 10.2 ln median PBM intensity, better of two orientations.
B9 was tested, and the binding signal was 8.68 ln median PBM intensity, better of two orientations.
In the case of B10, the binding signal is reported as 8.26 ln median PBM intensity, better of two orientations.
In the case of B11, the binding signal is reported as 9.77 ln median PBM intensity, better of two orientations.
In the case of B12, the binding signal is reported as 8.62 ln median PBM intensity, better of two orientations.
In the case of B13, the binding signal is reported as 8.81 ln median PBM intensity, better of two orientations.
B14 was tested, and the binding signal was 10.8 ln median PBM intensity, better of two orientations.
With B15 the binding signal was 8.23 ln median PBM intensity, better of two orientations.
With B16 the binding signal was 8.45 ln median PBM intensity, better of two orientations.
For B17, the binding signal was 8.38 ln median PBM intensity, better of two orientations.
With B18 the binding signal was 10.8 ln median PBM intensity, better of two orientations.
B19 was tested, and the binding signal was 8.7 ln median PBM intensity, better of two orientations.
